Source: paper PMC13342644, “Structural basis for transport and inhibition of nucleotide sugar transport in pathogenic fungi” (Nature Communications, 2026)
“Also recorded” adds a separate entry of the source.

Experiments:
[1] = target: T1, C. albicans Vrg4 (CaVrg4) (Candida albicans, UniProt Q5A477); assay: Liposome 3H-GMP transport assay in the presence of nanobodies; assay type: biochemical
T1 sequence (Q5A477 34-371 limits assumed): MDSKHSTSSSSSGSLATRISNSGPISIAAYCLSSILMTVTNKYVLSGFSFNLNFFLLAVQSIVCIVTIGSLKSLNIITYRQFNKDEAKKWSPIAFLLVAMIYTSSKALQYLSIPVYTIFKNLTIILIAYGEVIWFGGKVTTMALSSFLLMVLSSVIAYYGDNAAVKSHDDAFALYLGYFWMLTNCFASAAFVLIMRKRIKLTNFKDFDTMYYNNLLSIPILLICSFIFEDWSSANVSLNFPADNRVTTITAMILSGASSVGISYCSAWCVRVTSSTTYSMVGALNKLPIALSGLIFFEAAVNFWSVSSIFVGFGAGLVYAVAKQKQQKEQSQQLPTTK
Description: (§1) CaVrg4 was reconstituted into liposomes using the dilution method into preformed lipid vesicles. Chloroform was removed from the lipids using a rotary evaporator to obtain a thin film. The lipids were washed twice in pentane and then resuspended at 10–20 mg ml^−1 in lipid buffer (20 mM HEPES, pH 7.5, 100 mM KCl). These lipid vesicles were frozen and thawed twice in liquid nitrogen, then stored at −80 °C until use. For reconstitution, the lipids were thawed and then extruded first through a 0.8-μm filter and then through a 0.4-μm filter. […] After this time, the protein–lipid mix was diluted rapidly into 65 mL of assay buffer (20 mM HEPES, pH 7.5, 50 mM KCl, 2 mM MgSO4) and the proteoliposomes were collected through centrifugation at >200,000 x g for 2 h. To remove trace detergent, the proteoliposomes were dialysed overnight against a large volume (3 L) of assay buffer. After dialysis, the proteoliposomes were collected and resuspended in assay buffer to a final protein concentration of 0.5 μg μl^−1, and then subjected to two rounds of freeze–thawing in liquid nitrogen before storage at −80 °C. The amount of protein reconstituted into the lipids was quantified by SDS–PAGE and densitometry. […] The final buffer was PBS. For all the assays, the lipid mix consisted of POPE:POPG:Ecoli Polar lipid Extract:EggPC in a 27:7:9:1 ratio.
(§2) All assays were performed at 30 °C.

C. auris Vrg4 = assay: Liposome 3H-GMP transport assay in the presence of nanobodies (specificity control); assay type: biochemical; conditions: Vrg4 from Candida auris
Description: as §1, §2

S. cerevisiae Vrg4 = assay: as above; assay type: biochemical, Saccharomyces cerevisiae; conditions: Vrg4 from S. cerevisiae
[2] = system: yeast strain NDY5 overexpressing C. albicans Vrg4; assay: Hygromycin B-based in vivo viability (growth) assay; assay type: cell-based, Saccharomyces cerevisiae; conditions: NDY5 + C. albicans Vrg4, in the presence of hygromycin B
Description: The yeast was grown in minimal media to select for the plasmids, and the expression of the nanobody was induced with galactose. After overnight galactose induction, the yeast culture was diluted, and growth was monitored over 30 h.
An overnight culture was grown in minus -Leu-Ura medium containing 2% glucose and then diluted 1:10 into medium containing 2% lactate. After 9 h of growth, 2% galactose was added, and the cultures were left overnight. […] The cultures were grown at 30 °C with shaking, and growth was monitored over the next 30 h by measuring the OD.

B1: NB4: inhibitory nanobody specific for C. albicans Vrg4, stabilises the cytoplasmic-facing state (antibody, V domains shown)
VH: QVQLVESGGGLVQAGGSLRLSCAASGRTFRSYTLGWFRQAPGKEREFVAAIKWSTDTTYYADSVKGRFTISGDNAKNTVYLQMNSLKPEDTAVYFCAARSLSTVIAGPEIPWPYNSWGQGTQVTVSS
[1]
  Effect on transport function (uptake of 3H GMP into liposomes), in words: full inhibition
C. auris Vrg4
  Detectable inhibition, in words: neither NB3 nor NB4 showed any detectable inhibition
S. cerevisiae Vrg4
  Detectable inhibition, in words: neither NB3 nor NB4 showed any detectable inhibition
[2]
  Growth / sensitivity to hygromycin B, in words: sensitivity of this strain to HyB manifests; also recorded: slow growth phenotype

B2: NB3: inhibitory nanobody specific for C. albicans Vrg4, stabilises the Golgi-facing state (antibody, V domains shown)
VH: QVQLVESGGGLVQPGGSLRLSCAASGSISEINVMGWYRQAPGKQRELVARITTGGSTNYADSVKGRFTISRDNAKNTVYLQMNSLKPEDTAVYMCNAHRRVVMEWGPLGYDYWGQGTQVTVSS
[1]
  Effect on transport function (uptake of 3H GMP into liposomes), in words: full inhibition
C. auris Vrg4
  Detectable inhibition, in words: neither NB3 nor NB4 showed any detectable inhibition
S. cerevisiae Vrg4
  Detectable inhibition, in words: neither NB3 nor NB4 showed any detectable inhibition
[2]
  Growth / sensitivity to hygromycin B, in words: sensitivity of this strain to HyB manifests; also recorded: slow growth phenotype
